Test results taken from PMC4672631 (Biochemistry, 2015).

Biological target: cytochrome f (PetA), spinach (spinach, UniProt P16013 36-320)
Test: co-purification with SDS-PAGE densitometry

cytochrome f (PetA), spinach, sequence (P16013 36-320): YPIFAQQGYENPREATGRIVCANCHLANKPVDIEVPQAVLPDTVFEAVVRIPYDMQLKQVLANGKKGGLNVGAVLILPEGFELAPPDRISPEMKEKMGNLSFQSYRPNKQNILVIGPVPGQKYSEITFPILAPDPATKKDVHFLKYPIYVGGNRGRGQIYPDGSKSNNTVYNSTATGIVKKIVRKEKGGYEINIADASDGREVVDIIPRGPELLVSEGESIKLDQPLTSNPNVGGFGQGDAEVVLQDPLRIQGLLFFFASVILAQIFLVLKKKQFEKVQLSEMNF

| stoichiometry N | Binder |
| --- | --- |
| 0.85 relative to cyt f | subunit IV, spinach (natural protein, UniProt P00166 1-160, looked up) MGVTKKPDLNDPVLRAKLAKGMGHNYYGEPAWPNDLLYIFPVVILGTIACNVGLAVLEPSMIGEPADPFATPLEILPEWYFFPVFQILRTVPNKLLGVLLMASVPAGLLTVPFLENVNKFQNPFRRPVATTVFLVGTVVALWLGIGATLPIDKSLTLGLF |
| 0.95 relative to cyt f | iron-sulfur protein (ISP), spinach (natural protein, UniProt P08980 52-230, looked up) ATSIPADNVPDMQKRETLNLLLLGALSLPTGYMLLPYASFFVPPGGGAGTGGTIAKDALGNDVIAAEWLKTHAPGDRTLTQGLKGDPTYLVVESDKTLATFGINAVCTHLGCVVPFNAAENKFICPCHGSQYNNQGRVVRGPAPLSLALAHCDVDDGKVVFVPWTETDFRTGEAPWWSA |
| 0.96 relative to cyt f | cytochrome b6, spinach (natural protein, UniProt P00165 1-215, looked up) MSKVYDWFEERLEIQAIADDITSKYVPPHVNIFYCLGGITLTCFLVQVATGFAMTFYYRPTVTDAFASVQYIMTEVNFGWLIRSVHRWSASMMVLMMILHVFRVYLTGGFKKPRELTWVTGVVLGVLTASFGVTGYSLPWDQIGYWAVKIVTGVPDAIPVIGSPLVELLRGSASVGQSTLTRFYSLHTFVLPLLTAVFMLMHFLMIRKQGISGPL |
